Source: PMC3212511

Columns and labels:
[1] = target: human desmin (assembled into filaments in vitro) (human) (UniProt P17661); experiment: low-speed sedimentation assay; desmin alone assembled at 37°C; 2,500 g, 10 min, 20°C; pellets only filaments associated with each other (filament-filament interactions); SDS-PAGE densitometry
[2] = target: human desmin (assembled into filaments in vitro) (human) (UniProt P17661); experiment: low-speed sedimentation assay; desmin alone assembled at 22°C; 2,500 g, 10 min, 20°C; pellets only filaments associated with each other (filament-filament interactions); SDS-PAGE densitometry
[3] = target: human desmin (assembled into filaments in vitro) (human) (UniProt P17661); experiment: low-speed sedimentation assay; desmin alone assembled at 44°C; 2,500 g, 10 min, 20°C; pellets only filaments associated with each other (filament-filament interactions); SDS-PAGE densitometry

## human desmin (assembled into filaments in vitro) (from UniProt P17661 1-470) (natural protein)
[1]
  % of desmin in the low-speed pellet (filament-filament interactions): 45%
[2]
  % of desmin in the low-speed pellet (filament-filament interactions): 24%
[3]
  % of desmin in the low-speed pellet (filament-filament interactions): 61%
